Experimental data from patent US20140377253A1.

molecular target: FcgRIIB (UniProt P31994); test: FACS
Sequence (P31994 43-310): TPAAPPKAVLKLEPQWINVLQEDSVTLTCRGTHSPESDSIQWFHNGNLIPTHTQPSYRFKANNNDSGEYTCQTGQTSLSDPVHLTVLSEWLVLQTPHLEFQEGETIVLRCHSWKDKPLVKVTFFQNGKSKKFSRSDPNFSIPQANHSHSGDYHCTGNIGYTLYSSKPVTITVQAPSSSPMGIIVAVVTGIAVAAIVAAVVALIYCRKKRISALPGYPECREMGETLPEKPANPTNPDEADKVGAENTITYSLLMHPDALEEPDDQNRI

L328F and N297A are within 1.5-fold of each other in EC50: 1.85 nM for the first, 2 nM for the second.

Compared with S267E, SELF is 2-fold lower in EC50: 0.64 nM for the first, 0.32 nM for the second.

molecular target: FcgRIIIA (UniProt P08637); test: FACS
Sequence (P08637 17-254): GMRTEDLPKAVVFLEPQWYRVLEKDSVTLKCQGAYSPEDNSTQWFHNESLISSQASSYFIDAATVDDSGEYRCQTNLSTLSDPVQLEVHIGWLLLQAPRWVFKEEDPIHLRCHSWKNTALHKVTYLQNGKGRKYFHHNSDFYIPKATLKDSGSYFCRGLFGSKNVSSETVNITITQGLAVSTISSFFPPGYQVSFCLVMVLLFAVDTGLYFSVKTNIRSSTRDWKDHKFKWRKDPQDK

L328F and N297A are within 1.5-fold of each other in EC50: 2.51 nM for the first, 3.67 nM for the second.

Going from S267E to SELF, the EC50 rises from 1.24 nM to 2.31 nM (1.9-fold).
